Assay [1] has as its target T1, EBP-Ig (Homo sapiens, UniProt P19235).
T1 construct: one encoding amino acids 1-225 of the extracellular domain of the mature hEPOR; made in house
The experiment in a line: EBP-Ig Flash Plate EPO radioligand binding assay. The note with it: for IC50: read-out: EBP-Ig Binding IC 50; for competition in EBP-Ig binding assay: result in words. The source says: The interaction of biotin and strepavidin is frequently employed to capture and effectively immobilize reagents useful in assay protocols and has been employed here as a simple method to capture and immobilize EBP-Ig. EBP-Ig is initially randomly modified with an amine reactive derivative of biotin to produce biotinylated-EBP-Ig. Use of strepavidin coated plates allows the capture of the biotinylated EBP-Ig on the surface of a scintillant impregnated coated well (Flash plates, NEN-DuPont). […] The amount of light produced was quantified to estimate the amount of ligand binding. The specific assay format was suitable for the multi-well plate capacity of a Packard TopCount Microplate Scintillation counter.
Biotinylated EBP-Ig (3S mutant) was prepared as follows. EBP-Ig (3 ml, OD280 2.9) was exchanged into 50 mM sodium bicarbonate, pH 8.5 using a Centriprep 10 ultrafiltration device. […] 10 μl of a 4 mg/ml solution of NHS-LC-Biotin (Pierce) was added and the reaction mixture placed on ice in the dark for two hours. Unreacted biotin was removed by exchange of the reaction buffer into PBS in a Centriprep 10 device and the protein reagent aliquoted and stored at […].
All wells were adjusted to a final DMSO concentration of 5%. […] After all additions were made, the plate was covered with an adhesive top seal and placed in the dark at room temperature overnight. The next day all liquid was aspirated from the wells to limit analyte dependent quench of the signal, and the plates were counted on a Packard TOPCOUNT Microplate Scintillation Counter. […] Corrected total binding (CTB) was calculated as: TB-NSB=CTB. The concentration of test peptide which reduced CTB to 50% was reported as the IC50.

For assay [2], the system named is FDC-P1/hER cells. The experiment in a line: EPO dependent cell proliferation assay. The class given is cell-based, human EPO receptor. The note with it: for EC50 / FDCP-P1-hER ED50: amount of peptide for one half of maximal activity of recombinant EPO, 42 h + 6 h [3H]thymidine; for EC50: 2880 min, read-out: FDCP-P1-hER ED50; for EPO mimetic activity / proliferative capacity: cell proliferation, result in words. The procedure: At 24 hours, the cells were counted, resuspended at 800,000 cells/ml and dispensed at 40,000 cells/well. Stock solutions of the respective peptides (10 mM in DMSO) were prepared and dispensed in triplicate to final concentrations of 1×10^-10 M through 1×10^-5 M and adjusted to a final volume of 0.2 ml. […] A standard EPO dose response curve was generated with each assay series. After a 42 hours incubation at 37° C. (about 2 cell doublings) 1 μCi/well of [^3 H] thymidine was added and the incubation continued for 6 hours at which time the cells were harvested and counted to assess [^3 H] thymidine incorporation as a measure of cell proliferation.

Assay [3] addresses T1, EBP-Ig. The experiment in a line: Fluorescence polarization competitive binding assay with fluorescein-RWJ 61718. The note with it: for IC50: read-out: FP/EBP-Ig IC50; for competition in FP/EBP-Ig assay: fluorescein-RWJ 61718 as labelled ligand, result in words. The procedure:
Fluorescence polarization (FP) is a useful technique capable of providing information on changes in molecular volume which occur upon the association or dissociation of two molecules. […] Conversely, if a non-fluorescent competitor molecule is added to this complex then a decrease in the fluorescence polarization value can be anticipated [Checovich, W. J., Bolger, R. E. & Burke, T. Fluorescence polarization-a new tool for cell and molecular biology, Nature 375, 254-256 (1995)]. RWJ 61718 was labeled with a fluorescein reporter group by treating 10 mg of peptide solubilized in 3 ml of PBS with 17.9 mg of fluorescein isothiocyanate dissolved in 1 ml DMSO (added in 100 μl aliquots). RWJ 61718 contained a single amine (N-terminus) and 1:1 label incorporation was expected. This mixture was placed on ice and the solution cleared by the addition of 1.0 ml of DMSO. Following a 34 hour incubation at 4° C., fluorescein labeled RWJ 61718 was isolated by reverse phase HPLC. The entire reaction mixture was diluted 1:2 with 0.1% trifluoroacetic acid (TFA; mobile phase A), pumped onto a C-18 reversed phase preparative column (Vydac #218tp54) at 8 ml/min and eluted with a 90 minute linear gradient of 0-100% mobile phase B (acetonitrile containing 0.7% TFA). Fractions containing fluorescent products (excitation wavelength 488 nm, emission wavelength 530 nm) at 530 nm were collected and lyophilized. A highly fluorescent peak eluting at near 60 minutes (ca 60% mobile phase B) was determined to be the desired product by monitoring FP changes in the presence of EBP-Ig.
A competitive FP assay using fluorescein labeled RWJ 61718 as the receptor ligand was established as follows using a Fluorescence Polarization Microtiter System (Jolley Consulting). Test peptides at variable concentrations and EBP-Ig (3S mutant, 0.025 mg/ml) were incubated for 1 hour at room temperature in 90 μl PBS and dispensed into a Dynatech Microfluor plate 96 well plate. Fluorescein-RWJ 61718 was added to each well (10 μl in 0.1% TFA) to a final concentration of 2.5 μM followed by an additional 1 hr incubation at room temperate in the dark. Values for milliPolarization (mP) were obtained at an instrument voltage setting of 8.0. Baseline peptide values were determined from wells which contained only labeled peptide and PBS. Total mP readings were determined in test wells which contained labeled peptide and EBP-Ig only. Peptide concentration dependent competitive reduction in mP values were determined and an IC50 value calculated.
In general terms: In fluorescence polarisation assays a small probe gives low polarisation when free and higher when bound to something large.

In assay [4] the target is T2, EBP (Homo sapiens, UniProt P19235).
T2 construct: one encoding amino acids 1-225 of the extracellular domain of the mature hEPOR; made in house; host or cells: E. coli BL21(DE3)pLysS (plasmid pSAM3)
T2 sequence (P19235 25-249): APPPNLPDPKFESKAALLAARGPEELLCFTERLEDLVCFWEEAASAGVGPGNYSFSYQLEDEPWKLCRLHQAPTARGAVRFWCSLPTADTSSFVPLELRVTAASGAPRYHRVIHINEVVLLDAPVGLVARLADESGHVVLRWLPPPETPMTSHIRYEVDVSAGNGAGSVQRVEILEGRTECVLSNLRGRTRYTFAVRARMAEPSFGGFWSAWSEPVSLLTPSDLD
The experiment in a line: EBP bead competitive binding assay vs [125I]EPO. The settings on record: for competition in EBP-bead binding assay: result in words. The source says: EBP as produced by the above method contains one free sulfhydryl group which can be modified without affecting the solution phase binding of ligand. In order to immobilize the EBP for equilibrium binding analysis this observation was extended for the covalent attachment of EBP to agarose beads. The iodoacetyl activation chemistry of Sulfolink beads (Pierce Chemical Co, Rockford, Ill.) is specific for free thiols and assures that the linkage is not easily reversible. EBP-Sulfolink beads were made as follows: Sulfolink gel suspension (10 ml) was mixed with coupling buffer (40 ml: 50 mM TRIS, pH 8.3, 5 mM EDTA) and the gel was allowed to settle. The supernatant was removed and the EBP (0.3-1 mg/ml in coupling buffer) to be bound was added directly to the washed beads. The mixture was rocked gently for 30 minutes at room temperature, and the beads were allowed to settle for 1 hour at room temperature. The supernatant was removed and saved, and the beads were washed twice with 20 ml of coupling buffer. The washes were retained as well. The beads were then treated with 20 ml of 0.05 M cysteine for 30 minutes at room temperature to block unbound sites. Finally, the beads were washed with 50 ml of 1 M NaCl, then with 30 ml of PBS, and resuspended in 20 ml of PBS and stored at 4° C. The amount of EBP which was covalently bound to the beads was determined by comparing the OD280 of the original EBP solution to the total OD280 recovered in the reaction supernatant and the two 20 ml washes. Typically, 40-60% of the applied EBP remains associated with the beads.
Competitive binding assays of peptides were performed as described herein. Individual peptides were dissolved in DMSO to prepare a stock solution of 1 mM. […] Initial assay points with no added peptide were included in each assay to determine total binding. Binding mixtures were incubated overnight at room temperature with gentle rocking. The beads were then collected using Micro-columns (Isolab, Inc.) and washed with 3 mL of wash buffer (PBS/5% BSA). The columns containing the washed beads were placed in 12×75 mm glass tubes and bound radioactivity levels determined in a gamma counter.

Assay [5] addresses T2, EBP. The experiment in a line: DPDPB crosslinking: dimerization of EBP by EPO mimetic peptides (SDS-PAGE). The note with it: 22 μM EBP, 1.1 mM DPDPB, 400 μM peptide, visual detection of dimer product. The class given is biochemical. The procedure:
Peptide-mediated receptor dimerization was stabilized for study using the non-water soluble homobifunctional sulfhydryl reactive cross linking reagent DPDPB (1,4-di-[2'-pyridyldithio)propionamido]butane, Pierce Chemical Co., Rockford, Ill.). EBP (22 μM) was incubated in the presence or absence of DPDPB (1.1 mM), 400 μM peptide ligand, 75 μl of PBS, pH 7.5 with all reactions and controls containing a final concentration of 4.4% DMSO and 0.007% TFA. These samples were incubated for 4 hours at room temperature and stored at 4° C. for 12 hours before analysis under reducing and non-reducing conditions by SDS-PAGE (10-20% gradient gels, Integrated Separations Systems, Natick, Mass.).

The mark [6] stands for this setting: 0.5 nM [125I]EPO, 1 μg/ml biotinylated EBP-Ig (3S mutant), 5% DMSO, overnight.
The mark [7] stands for this setting: EBP-Ig (3S mutant) 0.025 mg/ml, fluorescein-RWJ 61718 2.5 μM.
[8] abbreviates: 0.5 nM [125I]EPO, 2.5% DMSO, overnight, room temperature.

Where two headings read alike, the source gives them in different places. Bridge positions count the residues as written; N and C are the ends. Square brackets hold non-standard residues; d marks the D form. Ends that are not written are not given here. Peptide text beside a SMILES is read from it. Tyr(3,5-Br2) = N[C@@H](Cc1cc(Br)c(O)c(Br)c1)C(=O)O

T1 sequence (P19235 with tags, fused parts or gaps limits assumed): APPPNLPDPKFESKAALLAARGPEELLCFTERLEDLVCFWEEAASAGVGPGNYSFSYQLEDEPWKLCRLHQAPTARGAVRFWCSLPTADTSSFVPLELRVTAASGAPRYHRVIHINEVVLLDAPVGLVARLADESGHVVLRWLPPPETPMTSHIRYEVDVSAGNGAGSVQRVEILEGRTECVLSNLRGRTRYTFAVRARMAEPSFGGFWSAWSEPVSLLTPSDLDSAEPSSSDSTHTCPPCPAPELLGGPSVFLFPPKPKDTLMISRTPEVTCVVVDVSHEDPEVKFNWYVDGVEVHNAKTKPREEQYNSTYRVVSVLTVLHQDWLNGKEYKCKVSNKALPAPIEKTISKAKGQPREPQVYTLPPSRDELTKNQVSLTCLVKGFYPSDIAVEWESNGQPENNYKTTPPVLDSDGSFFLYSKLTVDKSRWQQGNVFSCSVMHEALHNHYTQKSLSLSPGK

“GGLYACHMGPMTWVCQPLRG (GGKYACHMGPMTWVCQPKRG) [RWJ 61718]”: the IC50 is 0.1 µM in assay [1] (setting [6]), 0.35 µM in assay [3] (setting [7]) and 3 µM in assay [4] (setting [8]). Besides, the EC50 in assay [2] amounted to 0.1 µM. In assay [2], the “EPO mimetic activity / proliferative capacity” value is given as “with proliferative capacity”. Besides, in assay [5], the DPDPB cross-linking result is “positive”.
For the compound “GGTXSCHFGPLTWVCKPQGG (GGT[Tyr(3,5-Br2)]SCHFGPLTWVCKPQGG-NH2; disulfide 6-15 (inferred)) [RWJ 62021, X = 3,5-dibromo-tyr]”, the IC50 in assay [1] (setting [6]) is 400 µM; in assay [3] (setting [7]) it was 5 µM; in assay [4] (setting [8]) it was 150 µM. Further, the “competition in EBP-Ig binding assay” value in assay [1] was “very poorly”. Moreover, the “FDCP-P1-hER ED50” value in assay [2] was “Inactive”. Also, the “EPO mimetic activity / proliferative capacity” value in assay [2] is on record as “without proliferative potential”. The “competition in FP/EBP-Ig assay” value in assay [3] was “very efficient competitors”. For the same compound, in assay [4], the “competition in EBP-bead binding assay” value is given as “very poorly”. In addition, the DPDPB cross-linking result in assay [5] is “some crosslinking potential”.
For the compound `CC(C)C[C@@H]1NC(=O)[C@@H]2CCCN2C(=O)CNC(=O)[C@H](Cc2ccccc2)NC(=O)[C@H](Cc2c[nH]cn2)NC(=O)[C@@H](NC(=O)[C@@H](N)CO)CSSC[C@@H](C(=O)N[C@@H](CCCCN)C(N)=O)NC(=O)[C@H](C(C)C)NC(=O)[C@H](Cc2c[nH]c3ccccc23)NC(=O)[C@H]([C@@H](C)O)NC1=O` [RWJ 61177] (H-SCHFGPLTWVCK-NH2; disulfide 2-11), the IC50 was 500 µM in assay [1] and 90 µM in assay [4].
On to `CC(C)C[C@@H]1NC(=O)[C@@H]2CCCN2C(=O)CNC(=O)[C@H](Cc2ccccc2)NC(=O)[C@H](Cc2cnc[nH]2)NC(=O)[C@@H](NC(=O)[C@@H](N)CO)CSSC[C@@H](C(=O)N[C@@H](CCCCN)C(N)=O)NC(=O)[C@H](C(C)C)NC(=O)[C@H](Cc2c[nH]c3ccccc23)NC(=O)[C@H]([C@@H](C)O)NC1=O` [RWJ 61177] (H-SCHFGPLTWVCK-NH2; disulfide 2-11), for which the “FDCP-P1-hER ED50” value in assay [2] was “Inactive”. For the same compound, the “EPO mimetic activity / proliferative capacity” value in assay [2] is “without proliferative capacity”. Moreover, the “FP/EBP-Ig IC50” value in assay [3] (setting [7]) was “Inactive”. In addition, the “competition in FP/EBP-Ig assay” value in assay [3] is “inactive”. Besides, the DPDPB cross-linking entry was “deficient in crosslinking ability” in assay [5] and “negative” in assay [5] (listed as 61177).
“YSCHFGPLTWVCK (YSCHFGPLYWVCK) [RWJ 61279]”: in assay [2], the EC50 turned out to be 8 µM and the “EPO mimetic activity / proliferative capacity” value is given as “with proliferative capacity”. This compound also displayed an IC50 in assay [4] (setting [8]) of 70 µM. The DPDPB cross-linking result in assay [5] was “positive”.
As to GGTYSCHFGPLTWVCKPQ [RWJ 61596], the EC50 in assay [2] is 0.08 µM. In assay [4] (setting [8]), this compound showed an IC50 of 8 µM.
Turning to GGTYSCHFGPLTWVCKPQGG [RWJ 61233], the IC50 is 1 µM in assay [1] (setting [6]), 0.5 µM in assay [3] (setting [7]) and 5 µM in assay [4] (setting [8]). In addition, the “competition in EBP-Ig binding assay” value in assay [1] was “competes at similar levels in both the EBP-bead and EBP-Ig binding assays”. Besides, in assay [2], the EC50 worked out at 0.1 µM. For the same compound, the “EPO mimetic activity / proliferative capacity” value in assay [2] was “functions as an EPO mimetic”. In addition, the “competition in FP/EBP-Ig assay” value in assay [3] is on record as “positive”. Also, the “competition in EBP-bead binding assay” value in assay [4] is “competes at similar levels in both the EBP-bead and EBP-Ig binding assays”. The DPDPB cross-linking result in assay [5] is recorded as “positive”.

These data come from patent publication US6221608A, “Methods for identifying erythropoietin receptor binding protein” (Ortho Pharmaceutical Corporation, priority 1997, dated 2001).
